Experimental data reported in US20090252683A1 (Amgen, published 2009).
Blank lines part the entries; values can stand above or below the binder they belong to. No end group written: not given here. *: point of attachment. Biotin = O=C1N[C@H]2[C@H](CS[C@H]2CCCCC(=O)*)N1; linker = not defined here

Assays:
[1] = biological target: T1, human EpCAM antigen on Kato III cells or human EpCAM transfected CHO cells (human, UniProt P16422 24-265); assay: FACS, Kato III cells (FIG. 8A), anti-His detection
T1 construct: 137 holds only the extracellular portion; the protein stood whole on cells
T1 sequence: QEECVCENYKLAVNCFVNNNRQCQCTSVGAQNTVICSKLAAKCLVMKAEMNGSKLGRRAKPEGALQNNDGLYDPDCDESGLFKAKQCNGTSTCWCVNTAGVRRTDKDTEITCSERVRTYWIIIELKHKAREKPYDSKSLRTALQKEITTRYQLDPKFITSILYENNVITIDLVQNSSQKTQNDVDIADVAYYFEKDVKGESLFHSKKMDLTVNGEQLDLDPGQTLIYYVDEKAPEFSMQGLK
Text: FIG. 8: FACS assay for binding of 2G8LH×SEQ ID NO. 12, 2G8LH×SEQ ID NO. 10, 2G8LH×SEQ ID NO. 16, 2G8LH×SEQ ID NO. 14, 2G8HL×SEQ ID NO. 12, 2G8HL×SEQ ID NO. 10, 2G8HL×SEQ ID NO. 16 and 2G8HL×SEQ ID NO. 14 on Kato III (FIG. 8A) cells or cynomolgus EpCAM transfected CHO cells (FIG. 8B) and HPB-ALL cells. Antigen binding was clearly detectable for the anti EpCAM specificities as well as for the anti CD3 specificities. As a negative control for binding to cynomolgus EpCAM, the 5-10LH×SEQ ID NO.
Binding of the bifunctional constructs from cell culture supernatants or binding of purified bifunctional constructs to the human EpCAM antigen on Kato III cells or cynomolgus EpCAM transfected CHO cells and to the CD3 antigen on HPB-ALL cells was tested using an FACS assay. For that purpose 2.5×10⁵ cells were incubated with 50 μl supernatant or with 5 μg/ml of the purified constructs in 50 μl PBS with 2% FCS. The binding of the constructs was detected with an anti-His antibody (Penta-His Antibody, BSA free, obtained from Qiagen GmbH, Hilden, FRG) at 2 μg/ml in 50 μl PBS with 2% FCS. […] The samples were measured on a FACSscan (BD biosciences, Heidelberg, FRG). Antigen binding was clearly detectable for the anti EpCAM specificities as well as for the anti CD3 specificities (see FIG. 8). As a negative control for binding to cynomolgus EpCAM, the 5-10LH×SEQ ID NO. […] The 5-10LH part only binds to human EpCAM.

[2] = biological target: T2, cynomolgus EpCAM antigen on transfected CHO cells (cynomolgus, UniProt Q1WER1 24-265 (rhesus entry)); assay: cell-based or functional assay
T2 sequence: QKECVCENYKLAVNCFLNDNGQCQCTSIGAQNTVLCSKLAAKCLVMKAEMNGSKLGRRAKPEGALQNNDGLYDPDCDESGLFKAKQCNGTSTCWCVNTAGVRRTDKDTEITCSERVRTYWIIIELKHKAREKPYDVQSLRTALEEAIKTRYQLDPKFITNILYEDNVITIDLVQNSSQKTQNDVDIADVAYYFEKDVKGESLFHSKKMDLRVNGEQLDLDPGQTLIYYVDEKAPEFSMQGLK

[3] = biological target: cynomolgus CD3 antigen on cynomolgus PBMC / macaque T cells (Macaca fascicularis (cynomolgus), UniProt Q95LI5 22-117; Q95LI7 23-110; Q95LI8 22-103); assay: cell-based or functional assay
[4] = biological target: T1, human EpCAM antigen on Kato III cells …; assay: cell-based or functional assay
[5] = biological target: T3, biotin-linker-EFSELEQSGYYVC (human, reading uncertain; also: short linker, not given here, printed as biotin-linker-EFSELEQSGYYVC); assay: dot blot, 75 µg peptide on nitrocellulose, 3 µg/ml antibody
T3 construct: also called 13mer peptide of human CD3 epsilon, biotinylated N-terminally; peptide (1)
T3 peptide: {Biotin-linker}-EFSELEQSGYYVC
Text: (§1) To verify the epitope of the human-like cross-species specific anti-CD3 antibody fragment described in Example 16 on human CD3 epsilon, the identified binding region as determined in Experiment 18 was further analyzed by a dot-blotting assay using a 13mer peptide covering the defined binding area of amino acid residues “FSELE” on human CD3 epsilon. This peptide comprises the amino acid sequence “[…]” (SEQ ID NO. 195) of human CD3 epsilon. The peptide exists in two forms and is either biotinylated N- or C-terminally. In case of the N-terminal labelling, a short linker connects the peptide with the biotin. As described in Example 18, the antibody fragment was converted to a murine IgG format with a murine gammal heavy chain comprising the VH region as shown in SEQ ID NO. 110 and a kappa light chain comprising the VL region as shown in SEQ ID NO. 168. The dot blotting was performed as follows. The Minifold I Spot Blot System from Schleicher & Schuell was used for immobilizing the peptides on a nitrocellulose membrane (Protran BA 85, 0.45 μm). 75 μg of each peptide in 100 μl TBS were filtered through the membrane using vacuum. After the filtration step the membrane was blocked with 1×TBS/1% (w/v) blocking reagent (BM Chemiluminescence Blotting Substrate (POD) of Roche Diagnostics GmbH) for 2 h. […]

EFSELEQSGYYVC-biotin = biological target: T4, EFSELEQSGYYVC-biotin (human); assay: as above
T4 construct: also called 13mer peptide of human CD3 epsilon, biotinylated C-terminally; peptide (2)
T4 peptide: EFSELEQSGYYVC-biotin
Text: as §1

cynomolgus CD3 antigen on cynomolgus PBMC / macaque T cells, sequence (Q95LI5 22-117, chain 1 of 3): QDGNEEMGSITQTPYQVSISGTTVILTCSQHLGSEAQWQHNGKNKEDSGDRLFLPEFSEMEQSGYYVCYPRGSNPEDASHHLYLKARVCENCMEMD
cynomolgus CD3 antigen on cynomolgus PBMC / macaque T cells, sequence (Q95LI7 23-110, chain 2 of 3): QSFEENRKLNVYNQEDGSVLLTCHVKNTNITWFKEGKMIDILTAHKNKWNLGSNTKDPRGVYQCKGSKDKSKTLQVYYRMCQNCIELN
cynomolgus CD3 antigen on cynomolgus PBMC / macaque T cells, sequence (Q95LI8 22-103, chain 3 of 3): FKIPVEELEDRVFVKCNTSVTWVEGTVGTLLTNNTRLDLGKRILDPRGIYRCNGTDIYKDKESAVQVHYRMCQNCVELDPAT

B1: 2G8HL×SEQ ID NO. 12 bispecific single chain antibody (bispecific antibody)
chain: EVQLQQSGAELVRSGASVKLSCTASGFNIKDYYLHWVKQRPEQGLEWIAWIDLENGDIKYAPKFQGKATITADTSSNTAYLQLSSLTSEDTAVYYCNPYYYGSNYDYAMDYWGQGTSVTVSSGGGGSGGGGSGGGGSDVVMTQTPLTLSVTIGQPASISCKSSQSLLYSNGKTYLNWILQRPGQSPKRLIYLVSKLDSGVPDRFTGSGSGTDFTLKISRVEAEDLGVYYCVQGTHFPLTFGAGTKLELKSGGGGSQAVVTQESALTTSPGETVTLTCRSSTGAVTTSNYANWVQEKPDHLFTGLIGGTNKRAPGVPARFSGSLIGDKAALTITGAQTEDEAIYFCALWYSNLWVFGGGTKLTVLGGGGSGGGGSGGGGSEVKLLESGGGLVQPKGSLKLSCAASGFTFNTYAMNWVRQAPGKGLEWVARIRSKYNNYATYYADSVKDRFTISRDDSQSILYLQMNNLKTEDTAMYYCVRHGNFGNSYVSWFAYWGQGTLVTVSAHHHHHH
binding result [1]: binds | EC50 (half maximal killing), FACS-based cytotoxicity, cynomolgus EpCAM transfected CHO target cells, cynomolgus PBMC effector cells [2]: 60.4 ng/mL | EC50 (half maximal killing), FACS-based cytotoxicity, cynomolgus EpCAM transfected CHO target cells, human PBMC effector cells [2]: 3.64 ng/mL | EC50 (half maximal killing), FACS-based cytotoxicity, cynomolgus EpCAM transfected CHO target cells, cynomolgus PBMC effector cells [3]: 60.4 ng/mL

B2: 5-10LH×SEQ ID NO. 12 bispecific single chain antibody (bispecific antibody)
chain: ELVMTQSPSSLTVTAGEKVTMSCKSSQSLLNSGNQKNYLTWYQQKPGQPPKLLIYWASTRESGVPDRFTGSGSGTDFTLTISSVQAEDLAVYYCQNDYSYPLTFGAGTKLEIKGGGGSGGGGSGGGGSEVQLLEQSGAELVRPGTSVKISCKASGYAFTNYWLGWVKQRPGHGLEWIGDIFPGSGNIHYNEKFKGKATLTADKSSSTAYMQLSSLTFEDSAVYFCARLRNWDEPMDYWGQGTTVTVSSGGGGSQAVVTQESALTTSPGETVTLTCRSSTGAVTTSNYANWVQEKPDHLFTGLIGGTNKRAPGVPARFSGSLIGDKAALTITGAQTEDEAIYFCALWYSNLWVFGGGTKLTVLGGGGSGGGGSGGGGSEVKLLESGGGLVQPKGSLKLSCAASGFTFNTYAMNWVRQAPGKGLEWVARIRSKYNNYATYYADSVKDRFTISRDDSQSILYLQMNNLKTEDTAMYYCVRHGNFGNSYVSWFAYWGQGTLVTVSAHHHHHH
EC50 (half maximal killing), FACS-based cytotoxicity, Kato III target cells, human PBMC effector cells [4]: 0.0015 ng/mL | EC50 (half maximal killing), FACS-based cytotoxicity, Kato III target cells, cynomolgus PBMC effector cells [3]: 0.069 ng/mL

B4: 5-10LH×SEQ ID NO. 14 bispecific single chain antibody (bispecific antibody)
chain: ELVMTQSPSSLTVTAGEKVTMSCKSSQSLLNSGNQKNYLTWYQQKPGQPPKLLIYWASTRESGVPDRFTGSGSGTDFTLTISSVQAEDLAVYYCQNDYSYPLTFGAGTKLEIKGGGGSGGGGSGGGGSEVQLLEQSGAELVRPGTSVKISCKASGYAFTNYWLGWVKQRPGHGLEWIGDIFPGSGNIHYNEKFKGKATLTADKSSSTAYMQLSSLTFEDSAVYFCARLRNWDEPMDYWGQGTTVTVSSGGGGSQVQLQQSGAELARPGASVKMSCKASGYTFTRSTMHWVKQRPGQGLEWIGYINPSSAYTNYNQKFKDKATLTADKSSSTAYMQLSSLTSEDSAVYYCASPQVHYDYNGFPYWGQGTLVTVSAGGGGSGGGGSGGGGSQVVLTQSPAIMSAFPGEKVTMTCSASSSVSYMNWYQQKSGTSPKRWIYDSSKLASGVPARFSGSGSGTSYSLTISSMETEDAATYYCQQWSRNPPTFGGGTKLQITHHHHHH
EC50 (half maximal killing), FACS-based cytotoxicity, Kato III target cells, human PBMC effector cells [4]: 0.0013 ng/mL | EC50 (half maximal killing), FACS-based cytotoxicity, Kato III target cells, cynomolgus PBMC effector cells [3]: 0.087 ng/mL

Continued, in another order:

binding result [5]: binds | binding result (EFSELEQSGYYVC-biotin): binds
B3: cross-species specific anti-CD3 antibody (murine IgG1 comprising the VH chain shown in SEQ ID NO. 110 and the VL chain shown in SEQ ID NO. 168) (antibody, V domains shown)
VH: EVQLLESGGGLVQPGGSLKLSCAASGFTFNTYAMNWVRQAPGKGLEWVARIRSKYNNYATYYADSVKDRFTISRDDSKNTAYLQMNNLKTEDTAVYYCVRHGNFGNSYVSWFAYWGQGTLVTVSS
VL: ELVVTQEPSLTVSPGGTVTLTCRSSTGAVTTSNYANWVQQKPGQAPRGLIGGTNKRAPGTPARFSGSLLGGKAALTLSGVQPEDEAEYYCALWYSNLWVFGGGTKLTVL
notes: full IgG with a murine gamma1 heavy chain and a kappa light chain; also called human-like cross-species specific anti-CD3 antibody; cross-species specific anti-CD3 IgG1 antibody

binding result [1]: binds
B5: 2G8LH×SEQ ID NO. 10 bispecific single chain antibody (bispecific antibody)
chain: DVVMTQTPLTLSVTIGQPASISCKSSQSLLYSNGKTYLNWILQRPGQSPKRLIYLVSKLDSGVPDRFTGSGSGTDFTLKISRVEAEDLGVYYCVQGTHFPLTFGAGTKLELKGGGGSGGGGSGGGGSEVQLQQSGAELVRSGASVKLSCTASGFNIKDYYLHWVKQRPEQGLEWIAWIDLENGDIKYAPKFQGKATITADTSSNTAYLQLSSLTSEDTAVYYCNPYYYGSNYDYAMDYWGQGTSVTVSSGGGGSEVKLLESGGGLVQPKGSLKLSCAASGFTFNTYAMNWVRQAPGKGLEWVARIRSKYNNYATYYADSVKDRFTISRDDSQSILYLQMNNLKTEDTAMYYCVRHGNFGNSYVSWFAYWGQGTLVTVSAGGGGSGGGGSGGGGSQAVVTQESALTTSPGETVTLTCRSSTGAVTTSNYANWVQEKPDHLFTGLIGGTNKRAPGVPARFSGSLIGDKAALTITGAQTEDEAIYFCALWYSNLWVFGGGTKLTVLHHHHHH
EC50 (half maximal killing), FACS-based cytotoxicity, cynomolgus EpCAM transfected CHO target cells, cynomolgus PBMC effector cells [2]: 39.8 ng/mL | EC50 (half maximal killing), FACS-based cytotoxicity, cynomolgus EpCAM transfected CHO target cells, human PBMC effector cells [2]: 1.1 ng/mL | EC50 (half maximal killing), FACS-based cytotoxicity, cynomolgus EpCAM transfected CHO target cells, cynomolgus PBMC effector cells [3]: 39.8 ng/mL
